# Results reported in paper PMC11322631.
# “And” between values parts separate entries of the source, which are not always exact repeats. Identical values can stand only once.
# How the values were obtained:
# [1] = biological target: green-light absorbing proteorhodopsin A18L variant with uncleavable N-terminal signal peptide (marine γ-proteobacteria); assay: native gel or EMSA; BN-PAGE, NativePAGE 4-16% Bis-Tris gel, about 5 µg protein, 0.4% Cymal-5 and 0.25% Coomassie G-250 in the sample, run in ice water
# [2] = biological target: green-light absorbing proteorhodopsin A18L variant with uncleavable N-terminal signal peptide (marine γ-proteobacteria); assay: cryo-EM structure; single particle cryo-EM of purified oligomers in 20 mM BTP-HCl pH 7.5, 150 mM NaCl, 0.25% Cymal-5; GPR-A18L at 4.2 mg/mL, PO at 4.0 mg/mL
# [3] = biological target: proteoopsin, retinal-free N-terminally truncated green-light absorbing proteorhodopsin lacking the signal peptide (marine γ-proteobacteria); assay: as above
stoichiometry N [1],stoichiometry N [2],stoichiometry N [3],Substance
5 and 6,5 and 6,,green-light absorbing proteorhodopsin A18L variant with uncleavable N-terminal signal peptide (natural protein)
,,5,"proteoopsin, retinal-free N-terminally truncated green-light absorbing proteorhodopsin lacking the signal peptide (natural protein)"
